Assays:
ERI3 = target: T1, ERI3 (UniProt O43414); assay: EC50 of free RNA motif oligo competing protein binding to immobilised probe
T1 sequence: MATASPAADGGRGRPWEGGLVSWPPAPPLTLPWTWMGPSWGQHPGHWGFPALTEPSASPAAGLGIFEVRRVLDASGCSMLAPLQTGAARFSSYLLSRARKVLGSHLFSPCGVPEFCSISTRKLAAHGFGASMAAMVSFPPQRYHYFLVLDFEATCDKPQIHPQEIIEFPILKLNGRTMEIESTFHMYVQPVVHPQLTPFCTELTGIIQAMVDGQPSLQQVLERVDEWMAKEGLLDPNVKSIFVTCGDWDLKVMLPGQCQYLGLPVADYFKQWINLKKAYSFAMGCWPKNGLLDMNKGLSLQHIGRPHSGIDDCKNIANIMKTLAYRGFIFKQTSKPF
How it was run: (§1)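 HEK293-FT lysate (2.5 mg protein/well) was treated with free RNA oligos (0 nM to 30 μM) for 1 h at 4°C, then with the same oligos on NHS-Sepharose beads for 30 min at 4°C. Bound proteins were quantified by label-free LC-MS/MS relative to the control. EC50 came from a four-parameter log-logistic fit, and Kd is EC50 times a protein-dependent depletion factor.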

SRSF10 = SRSF10 (UniProt O75494); assay: as above
How it was run: as §1

RPS3 = RPS3 (UniProt P23396); assay: as above
How it was run: as §1

MRPL11 = MRPL11 (UniProt Q9Y3B7); assay: as above
How it was run: as §1

PCBP1 = PCBP1 (UniProt Q15365); assay: as above
How it was run: as §1

RPS13 = RPS13 (UniProt P62277); assay: as above
How it was run: as §1

RPS19 = RPS19 (UniProt P39019); assay: as above
How it was run: as §1

RPSA = RPSA (UniProt P08865); assay: as above
How it was run: as §1

MRPL37 = MRPL37 (UniProt Q9BZE1); assay: as above
How it was run: as §1

HNRNPA1 = HNRNPA1 (UniProt P09651); assay: as above
How it was run: as §1

PLOD1 = target: T2, PLOD1 (UniProt Q02809); assay: as above
T2 sequence: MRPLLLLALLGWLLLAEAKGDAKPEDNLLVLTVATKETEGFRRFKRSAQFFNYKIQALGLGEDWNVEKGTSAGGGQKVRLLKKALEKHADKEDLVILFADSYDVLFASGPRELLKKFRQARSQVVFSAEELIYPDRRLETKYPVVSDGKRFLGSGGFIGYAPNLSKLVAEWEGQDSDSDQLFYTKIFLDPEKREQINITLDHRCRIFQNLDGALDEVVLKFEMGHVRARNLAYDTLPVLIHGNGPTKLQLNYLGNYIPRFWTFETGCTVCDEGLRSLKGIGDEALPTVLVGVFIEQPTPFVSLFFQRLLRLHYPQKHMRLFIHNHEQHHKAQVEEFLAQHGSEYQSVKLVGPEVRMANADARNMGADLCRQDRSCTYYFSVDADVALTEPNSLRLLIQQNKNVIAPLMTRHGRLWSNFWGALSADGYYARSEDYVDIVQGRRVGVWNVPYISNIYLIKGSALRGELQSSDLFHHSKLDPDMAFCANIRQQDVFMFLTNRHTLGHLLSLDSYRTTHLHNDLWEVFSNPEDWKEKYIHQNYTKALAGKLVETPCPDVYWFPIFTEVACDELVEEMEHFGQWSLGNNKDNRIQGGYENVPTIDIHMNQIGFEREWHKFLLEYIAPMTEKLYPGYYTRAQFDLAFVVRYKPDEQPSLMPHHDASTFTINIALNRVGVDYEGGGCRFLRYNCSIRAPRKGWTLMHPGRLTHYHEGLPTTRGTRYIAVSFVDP
How it was run: as §1

CSTF1 = target: T3, CSTF1 (UniProt Q05048); assay: Kd (EC50 corrected by depletion factor)
T3 sequence: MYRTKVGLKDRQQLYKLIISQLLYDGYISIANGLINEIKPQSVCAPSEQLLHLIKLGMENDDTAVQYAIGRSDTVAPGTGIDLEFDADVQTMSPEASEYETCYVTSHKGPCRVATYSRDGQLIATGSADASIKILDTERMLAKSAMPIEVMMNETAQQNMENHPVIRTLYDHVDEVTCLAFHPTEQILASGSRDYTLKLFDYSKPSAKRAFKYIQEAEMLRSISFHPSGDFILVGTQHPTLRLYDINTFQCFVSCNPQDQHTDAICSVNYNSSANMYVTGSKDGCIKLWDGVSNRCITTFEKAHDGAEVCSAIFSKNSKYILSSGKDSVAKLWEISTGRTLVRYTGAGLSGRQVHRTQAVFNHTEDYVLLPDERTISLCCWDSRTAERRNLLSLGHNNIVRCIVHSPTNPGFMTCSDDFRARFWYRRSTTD
How it was run: as §1

Sequence of HNRNPA1 (P09651 whole entry): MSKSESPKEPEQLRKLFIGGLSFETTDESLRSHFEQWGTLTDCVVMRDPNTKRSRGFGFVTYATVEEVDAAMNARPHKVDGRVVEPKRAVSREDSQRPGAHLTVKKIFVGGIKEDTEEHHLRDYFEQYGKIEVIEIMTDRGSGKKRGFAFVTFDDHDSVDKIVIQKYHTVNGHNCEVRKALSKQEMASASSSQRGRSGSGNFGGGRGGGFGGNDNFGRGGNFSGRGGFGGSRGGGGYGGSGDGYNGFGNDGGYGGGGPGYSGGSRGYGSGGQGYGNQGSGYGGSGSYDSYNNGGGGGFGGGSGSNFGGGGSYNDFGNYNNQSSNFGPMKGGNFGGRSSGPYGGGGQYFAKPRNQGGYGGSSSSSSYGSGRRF
Sequence of SRSF10 (O75494 whole entry): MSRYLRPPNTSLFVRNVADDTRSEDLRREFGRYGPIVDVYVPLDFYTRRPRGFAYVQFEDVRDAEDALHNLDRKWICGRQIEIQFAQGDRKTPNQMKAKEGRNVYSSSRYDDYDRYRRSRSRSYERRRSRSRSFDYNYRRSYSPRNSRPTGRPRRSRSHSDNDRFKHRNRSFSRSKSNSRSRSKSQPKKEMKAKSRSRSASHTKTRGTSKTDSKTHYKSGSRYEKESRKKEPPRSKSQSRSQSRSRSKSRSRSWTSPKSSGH
Sequence of PCBP1 (Q15365 whole entry): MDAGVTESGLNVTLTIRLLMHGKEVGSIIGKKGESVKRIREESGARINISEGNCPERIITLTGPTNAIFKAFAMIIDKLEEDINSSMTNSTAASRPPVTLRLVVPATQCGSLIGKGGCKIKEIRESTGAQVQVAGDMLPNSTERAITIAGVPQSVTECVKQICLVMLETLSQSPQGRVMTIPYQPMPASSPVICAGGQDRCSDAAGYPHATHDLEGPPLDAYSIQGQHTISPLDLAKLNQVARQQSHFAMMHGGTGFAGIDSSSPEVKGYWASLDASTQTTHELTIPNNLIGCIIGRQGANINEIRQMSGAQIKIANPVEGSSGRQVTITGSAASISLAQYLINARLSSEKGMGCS

For AAUAAA, the EC50 (ERI3) was 1970 nM and the EC50 (SRSF10) was 1150 nM.
Sequence CUGUCCU has an EC50 (RPS3) of 307 nM, an EC50 (MRPL11) of 118 nM and an EC50 (PCBP1) of 3360 nM. For the same sequence, the EC50 (RPS13) was 123 nM, the EC50 (RPS19) was 176 nM and the EC50 (RPSA) was 491 nM. The EC50 (MRPL37) was 245 nM.
UAUUUAU was tested, and the EC50 (HNRNPA1) was 2950 nM, the EC50 (PLOD1) was 6720 nM and the Kd (CSTF1) was 322 nM.
